Measurements as given in article PMC4684421 (Protein expression and purification, 2015).
Like-named read-outs stand apart in the source and are kept apart here.

Assays:
Experiment in all cases: enzyme inhibition kinetics
[1] = molecular target: Cathepsin B (human)
[2] = molecular target: Cathepsin B (human); remark: listed apart in the source
[3] = molecular target: T1, Papain (UniProt P00784 134-345)
T1 sequence (looked up): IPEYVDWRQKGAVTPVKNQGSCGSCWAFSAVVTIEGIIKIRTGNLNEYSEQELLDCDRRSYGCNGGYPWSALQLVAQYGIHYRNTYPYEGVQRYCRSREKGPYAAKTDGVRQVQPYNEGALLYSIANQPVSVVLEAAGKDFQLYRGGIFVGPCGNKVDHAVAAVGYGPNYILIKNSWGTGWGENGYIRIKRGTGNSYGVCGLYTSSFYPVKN

[4] = molecular target: T1, Papain; remark: listed apart in the source

Human cystatin C (from UniProt P01034 27-146) (natural protein)
Ki [1]: 0.1 nM | Ki [2]: 0.06 nM

B1: Human cystatin C (natural protein, UniProt P01034 27-146, looked up)
chain: SSPGKPPRLVGGPMDASVEEEGVRRALDFAVGEYNKASNDMYHSRALQVVRARKQIVAGVNYFLDVELGRTTCTKTQPNLDNCPFHDQPHLKRKAFCSFQIYAVPWQGTMTLSKSTCQDA
Ki [3]: < 0.005 nM | Ki [4]: < 0.007 nM
